Measurements: patent publication US20030082643A1 (Bristol-Myers Squibb, published 2003)

Experiments:
[1] = target: T1, human CD89 expressed on cells (human, UniProt P24071 22-287); assay: flow cytometry on 2a1.6/CD89 cells, human PMNL and PMNL of human-CD89 transgenic mice
T1 construct: whole, on cells; also called FcalphaRI; 2a1.6/CD89 cells

[2] = target: T2, soluble recombinant CD89 (human, UniProt P24071 22-227, limits assumed); assay: ELISA
T2 construct: Soluble recombinant CD89, coated on ELISA plates, immobilised on BIAcore chips or in solution; also called sCD89; recombinant soluble CD89 antigen
T2 sequence (P24071 22-227 limits assumed): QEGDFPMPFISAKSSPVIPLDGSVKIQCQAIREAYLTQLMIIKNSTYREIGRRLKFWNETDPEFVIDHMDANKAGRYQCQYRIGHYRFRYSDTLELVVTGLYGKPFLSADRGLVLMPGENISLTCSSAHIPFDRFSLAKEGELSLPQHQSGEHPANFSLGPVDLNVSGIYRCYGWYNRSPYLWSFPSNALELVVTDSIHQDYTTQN
Experimental: Solid-phase ELISA based assays were employed in the binding studies. Briefly, soluble recombinant CD89 in PBS was coated onto 96-well microtiter plates (1 μg/ml) and incubated overnight at room temperature. The plates were then washed with PBS-0.2%Tween-20 (PBST) and blocked with chicken serum albumin in PBST for 1 hour at room temperature. Supernatants from the anti-CD89 producing hybridomas or purified antibody (in PBS) were added to the wells and incubated for 2 hours at room temperature. The plates were washed with PBST as above and then incubated with 50 μl of HRP-conjugated goat-anti-human for 1 hour at room temperature. After washing, 100 μl of ABTS (150 mg 2,2′-azino-bis (3-ethylbenzthiazoline-6-sulfonic acid in 500 ml of 0.1 M citric acid, pH 4.35)/H₂O₂ (10 μl 30% H₂O₂ per 10 ml of ABTS solution) chromagen/substrate solution was added to each well and the samples read with a microplate reader at a wavelength of 405 nm.
Hybridomas which produced human IgG that bound CD89 were further characterized for isotype using ELISA (Human Kappa) (same protocol described above). […] Purified antibodies were extensively dialyzed against 0.3 M sodium carbonate buffer, pH 9.5, for labeling with […] (FITC). […]

T1 sequence (P24071 22-287): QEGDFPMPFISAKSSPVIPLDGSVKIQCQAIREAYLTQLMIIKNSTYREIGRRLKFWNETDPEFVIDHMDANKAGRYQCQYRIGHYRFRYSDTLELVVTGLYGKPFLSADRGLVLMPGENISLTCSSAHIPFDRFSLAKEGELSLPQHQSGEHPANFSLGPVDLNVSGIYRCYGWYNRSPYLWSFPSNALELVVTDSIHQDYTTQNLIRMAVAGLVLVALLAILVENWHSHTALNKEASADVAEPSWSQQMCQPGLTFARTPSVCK

binding result [1]: binds
binding result [2]: binds
B1: human monoclonal antibody (HuMAb) 8.2 (antibody, V domains shown)
VH: QVQLVESGGGVVQPGRSLRLSCAASGFTFSSYAMHWVRQAPGKGLEWVAVISYDGRNKDYADSVKGRFTISRDNSKNTLYLQMNSLRAEDTAVHYCARLDWGYDAFDIWGQGTMVTVSS
VL: not shown
notes: Human IgG1 kappa from hybridoma; also called 8D2
